Publication PMC2475671

Biological target: Orc2-GFP (Drosophila (endogenous in salivary glands)) (UniProt Q24168)
Test: FRET or BRET; acceptor photobleaching (543 nm laser) of Rbf1N-RFP (mCherry) with Orc2-GFP (EGFP) as donor, in chromatin-washed, formaldehyde-fixed salivary gland nuclei; ratio of bleached to non-bleached areas in three nuclei

Sequence of UniProt Q24168 (Q24168 whole entry): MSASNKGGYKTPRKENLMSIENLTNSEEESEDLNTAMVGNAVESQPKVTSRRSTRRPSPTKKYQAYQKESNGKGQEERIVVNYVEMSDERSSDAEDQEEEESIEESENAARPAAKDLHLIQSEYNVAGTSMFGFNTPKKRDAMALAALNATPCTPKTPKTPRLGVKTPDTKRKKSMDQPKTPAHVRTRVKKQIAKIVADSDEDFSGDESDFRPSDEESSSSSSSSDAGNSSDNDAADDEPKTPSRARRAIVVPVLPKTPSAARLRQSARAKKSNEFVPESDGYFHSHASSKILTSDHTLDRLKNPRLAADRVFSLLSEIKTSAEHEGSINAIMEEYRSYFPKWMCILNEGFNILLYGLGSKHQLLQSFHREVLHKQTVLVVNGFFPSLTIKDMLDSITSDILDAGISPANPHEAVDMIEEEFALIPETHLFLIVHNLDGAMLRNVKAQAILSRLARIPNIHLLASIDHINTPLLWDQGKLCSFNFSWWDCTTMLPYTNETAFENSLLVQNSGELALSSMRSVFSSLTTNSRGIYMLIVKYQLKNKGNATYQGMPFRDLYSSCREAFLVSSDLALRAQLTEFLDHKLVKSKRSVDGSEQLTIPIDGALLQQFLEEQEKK

## Rbf1N-RFP (Rbf1 amino acids 1–345 with C-terminal V5 and mCherry, Lys241Glu) (domain or fragment)
  fold increase of GFP fluorescence after RFP photobleaching: 1.5 to 2 fold
